Assay results from IntAct's records for PubMed 31515488.

B1: Caspase-2 (Homo sapiens), P42575 (parent)
chain: MAAPSAGSWSTFQHKELMAADRGRRILGVCGMHPHHQETLKKNRVVLAKQLLLSELLEHLLEKDIITLEMRELIQAKVGSFSQNVELLNLLPKRGPQAFDAFCEALRETKQGHLEDMLLTTLSGLQHVLPPLSCDYDLSLPFPVCESCPLYKKLRLSTDTVEHSLDNKDGPVCLQVKPCTPEFYQTHFQLAYRLQSRPRGLALVLSNVHFTGEKELEFRSGGDVDHSTLVTLFKLLGYDVHVLCDQTAQEMQEKLQNFAQLPAHRVTDSCIVALLSHGVEGAIYGVDGKLLQLQEVFQLFDNANCPSLQNKPKMFFIQACRGDETDRGVDQQDGKNHAGSPGCEESDAGKEKLPKMRLPTRSDMICGYACLKGTAAMRNTKRGSWYIEALAQVFSERACDMHVADMLVKVNALIKDREGYAPGTEFHRCKEMSEYCSTLCRHLYLFPGHPPT
B2: 3-hydroxyanthranilate 3,4-dioxygenase (Homo sapiens), P46952 (parent)
chain: MERRLGVRAWVKENRGSFQPPVCNKLMHQEQLKVMFIGGPNTRKDYHIEEGEEVFYQLEGDMVLRVLEQGKHRDVVIRQGEIFLLPARVPHSPQRFANTVGLVVERRRLETELDGLRYYVGDTMDVLFEKWFYCKDLGTQLAPIIQEFFSSEQYRTGKPIPDQLLKEPPFPLSTRSIMEPMSLDAWLDSHHRELQAGTPLSLFGDTYETQVIAYGQGSSEGLRQNVDVWLWQLEGSSVVTMGGRRLSLAPDDSLLVLAGTSYAWERTQGSVALSVTQDPACKKPLG
partner: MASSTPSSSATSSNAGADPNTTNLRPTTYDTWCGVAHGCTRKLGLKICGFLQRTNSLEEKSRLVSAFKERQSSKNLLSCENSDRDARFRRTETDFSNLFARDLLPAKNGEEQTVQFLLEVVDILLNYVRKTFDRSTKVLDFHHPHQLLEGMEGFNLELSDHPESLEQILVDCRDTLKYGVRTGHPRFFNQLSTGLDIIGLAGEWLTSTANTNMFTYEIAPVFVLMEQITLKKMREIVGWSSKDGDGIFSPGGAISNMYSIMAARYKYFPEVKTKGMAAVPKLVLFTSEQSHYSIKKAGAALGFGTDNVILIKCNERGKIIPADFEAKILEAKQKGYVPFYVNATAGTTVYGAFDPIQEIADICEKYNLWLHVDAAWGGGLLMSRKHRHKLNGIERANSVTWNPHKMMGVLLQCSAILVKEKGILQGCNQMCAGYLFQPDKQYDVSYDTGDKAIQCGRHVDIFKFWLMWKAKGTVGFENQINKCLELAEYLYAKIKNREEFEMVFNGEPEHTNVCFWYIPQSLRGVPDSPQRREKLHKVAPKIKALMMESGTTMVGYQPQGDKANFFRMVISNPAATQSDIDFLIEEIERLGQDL
B3: STAM-binding protein (Homo sapiens), O95630 (parent)
chain: MSDHGDVSLPPEDRVRALSQLGSAVEVNEDIPPRRYFRSGVEIIRMASIYSEEGNIEHAFILYNKYITLFIEKLPKHRDYKSAVIPEKKDTVKKLKEIAFPKAEELKAELLKRYTKEYTEYNEEKKKEAEELARNMAIQQELEKEKQRVAQQKQQQLEQEQFHAFEEMIRNQELEKERLKIVQEFGKVDPGLGGPLVPDLEKPSLDVFPTLTVSSIQPSDCHTTVRPAKPPVVDRSLKPGALSNSESIPTIDGLRHVVVPGRLCPQFLQLASANTARGVETCGILCGKLMRNEFTITHVLIPKQSAGSDYCNTENEEELFLIQDQQGLITLGWIHTHPTQTAFLSSVDLHTHCSYQMMLPESVAIVCSPKFQETGFFKLTDHGLEEISSCRQKGFHPHSKDPPLFCSCSHVTVVDRAVTITDLR
partner: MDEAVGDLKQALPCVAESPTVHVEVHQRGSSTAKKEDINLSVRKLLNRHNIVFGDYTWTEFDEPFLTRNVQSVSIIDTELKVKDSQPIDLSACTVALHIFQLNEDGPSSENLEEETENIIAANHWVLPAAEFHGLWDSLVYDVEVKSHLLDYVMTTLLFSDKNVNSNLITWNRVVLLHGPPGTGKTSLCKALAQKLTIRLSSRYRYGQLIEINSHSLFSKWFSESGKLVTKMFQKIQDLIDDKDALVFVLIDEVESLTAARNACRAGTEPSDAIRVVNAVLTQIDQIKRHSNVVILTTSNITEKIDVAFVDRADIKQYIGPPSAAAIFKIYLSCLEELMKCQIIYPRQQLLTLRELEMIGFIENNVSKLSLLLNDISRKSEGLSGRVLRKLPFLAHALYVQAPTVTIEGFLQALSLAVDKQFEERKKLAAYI
B4: Low-density lipoprotein receptor class A domain-containing protein 1 (Homo sapiens), Q5T700 (parent)
chain: MNKVFPQGENGYTAAESKAHPGGEAGGGHLCCSRRGACLSASLLLLLATVAALIALVTILGLPSCTPGAQACITLTNRTGFLCHDQRSCIPASGVCDGVRTCTHGEDEDESLCRDVPQSLPHFLVAHCGDPASWIYSDQKCDGTNNCGDCSDELSPVTVCPPCGPGWWRCPSTFFKYCDCIPRHLCRDHVQHCSDWSDEYACPGP
partner: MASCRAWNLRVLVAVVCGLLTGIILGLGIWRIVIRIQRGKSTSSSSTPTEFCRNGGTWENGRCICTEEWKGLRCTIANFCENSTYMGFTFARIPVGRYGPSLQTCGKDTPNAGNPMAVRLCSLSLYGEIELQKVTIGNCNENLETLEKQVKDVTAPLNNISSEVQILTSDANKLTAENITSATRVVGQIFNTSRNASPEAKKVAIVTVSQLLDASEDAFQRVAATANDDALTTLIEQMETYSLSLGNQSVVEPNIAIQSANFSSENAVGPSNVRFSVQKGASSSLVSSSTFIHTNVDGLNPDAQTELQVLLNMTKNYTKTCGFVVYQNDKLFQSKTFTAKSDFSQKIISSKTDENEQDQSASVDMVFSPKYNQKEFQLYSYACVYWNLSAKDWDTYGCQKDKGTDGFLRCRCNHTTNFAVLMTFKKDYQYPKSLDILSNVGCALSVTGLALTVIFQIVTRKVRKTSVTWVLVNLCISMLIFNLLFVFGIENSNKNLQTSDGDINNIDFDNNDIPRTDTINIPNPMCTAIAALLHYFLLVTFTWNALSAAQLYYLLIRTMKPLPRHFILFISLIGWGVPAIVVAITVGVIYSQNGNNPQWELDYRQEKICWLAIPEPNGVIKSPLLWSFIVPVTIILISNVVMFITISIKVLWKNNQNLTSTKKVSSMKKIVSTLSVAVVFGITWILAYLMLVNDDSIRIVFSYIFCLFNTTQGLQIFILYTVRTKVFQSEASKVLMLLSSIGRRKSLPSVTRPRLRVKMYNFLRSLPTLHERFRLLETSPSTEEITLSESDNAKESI
B5: Protein LDOC1 (Homo sapiens), O95751 (parent)
chain: MVDELVLLLHALLMRHRALSIENSQLMEQLRLLVCERASLLRQVRPPSCPVPFPETFNGESSRLPEFIVQTASYMLVNENRFCNDAMKVAFLISLLTGEAEEWVVPYIEMDSPILGDYRAFLDEMKQCFGWDDDEDDDDEEEEDDY
partner: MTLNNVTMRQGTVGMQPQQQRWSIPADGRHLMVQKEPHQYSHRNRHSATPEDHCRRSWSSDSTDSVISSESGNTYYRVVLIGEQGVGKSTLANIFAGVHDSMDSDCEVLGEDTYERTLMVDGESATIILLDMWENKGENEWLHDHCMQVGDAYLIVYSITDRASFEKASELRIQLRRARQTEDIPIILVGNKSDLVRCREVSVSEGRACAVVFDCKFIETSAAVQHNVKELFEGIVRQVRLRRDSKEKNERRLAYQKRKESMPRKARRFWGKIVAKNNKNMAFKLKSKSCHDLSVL
B6: Aminoacylase-1 (Homo sapiens), Q03154 (parent)
chain: MTSKGPEEEHPSVTLFRQYLRIRTVQPKPDYGAAVAFFEETARQLGLGCQKVEVAPGYVVTVLTWPGTNPTLSSILLNSHTDVVPVFKEHWSHDPFEAFKDSEGYIYARGAQDMKCVSIQYLEAVRRLKVEGHRFPRTIHMTFVPDEEVGGHQGMELFVQRPEFHALRAGFALDEGIANPTDAFTVFYSERSPWWVRVTSTGRPGHASRFMEDTAAEKLHKVVNSILAFREKEWQRLQSNPHLKEGSVTSVNLTKLEGGVAYNVIPATMSASFDFRVAPDVDFKAFEEQLQSWCQAAGEGVTLEFAQKWMHPQVTPTDDSNPWWAAFSRVCKDMNLTLEPEIMPAATDNRYIRAVGVPALGFSPMNRTPVLLHDHDERLHEAVFLRGVDIYTRLLPALASVPALPSDS
B7: Transcription factor 12 (Homo sapiens), Q99081 (parent)
chain: MNPQQQRMAAIGTDKELSDLLDFSAMFSPPVNSGKTRPTTLGSSQFSGSGIDERGGTTSWGTSGQPSPSYDSSRGFTDSPHYSDHLNDSRLGAHEGLSPTPFMNSNLMGKTSERGSFSLYSRDTGLPGCQSSLLRQDLGLGSPAQLSSSGKPGTAYYSFSATSSRRRPLHDSAALDPLQAKKVRKVPPGLPSSVYAPSPNSDDFNRESPSYPSPKPPTSMFASTFFMQDGTHNSSDLWSSSNGMSQPGFGGILGTSTSHMSQSSSYGNLHSHDRLSYPPHSVSPTDINTSLPPMSSFHRGSTSSSPYVAASHTPPINGSDSILGTRGNAAGSSQTGDALGKALASIYSPDHTSSSFPSNPSTPVGSPSPLTGTSQWPRPGGQAPSSPSYENSLHSLQSRMEDRLDRLDDAIHVLRNHAVGPSTSLPAGHSDIHSLLGPSHNAPIGSLNSNYGGSSLVASSRSASMVGTHREDSVSLNGNHSVLSSTVTTSSTDLNHKTQENYRGGLQSQSGTVVTTEIKTENKEKDENLHEPPSSDDMKSDDESSQKDIKVSSRGRTSSTNEDEDLNPEQKIEREKERRMANNARERLRVRDINEAFKELGRMCQLHLKSEKPQTKLLILHQAVAVILSLEQQVRERNLNPKAACLKRREEEKVSAVSAEPPTTLPGTHPGLSETTNPMGHM
B8: Intraflagellar transport protein 27 homolog (Homo sapiens), Q9BW83 (parent)
chain: MVKLAAKCILAGDPAVGKTALAQIFRSDGAHFQKSYTLTTGMDLVVKTVPVPDTGDSVELFIFDSAGKELFSEMLDKLWESPNVLCLVYDVTNEESFNNCSKWLEKARSQAPGISLPGVLVGNKTDLAGRRAVDSAEARAWALGQGLECFETSVKEMENFEAPFHCLAKQFHQLYREKVEVFRALA
partner: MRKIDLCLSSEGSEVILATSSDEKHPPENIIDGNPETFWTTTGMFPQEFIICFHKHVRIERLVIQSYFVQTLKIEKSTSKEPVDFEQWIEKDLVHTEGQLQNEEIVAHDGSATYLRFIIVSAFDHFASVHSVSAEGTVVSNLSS

Variants of: B1
Conditions: with cradd_human CRADD

Variant	effect of a mutation on the interaction
R265G	with no effect
G349S	with no effect
E388K	with no effect

Variants of: B2
Conditions: with dce1_human GAD1, Q99259

Variant	effect of a mutation on the interaction
T42S	with no effect
I37V	with no effect

Variants of: B3
Conditions: with pch2_human TRIP13, Q15645

Variant	effect of a mutation on the interaction
Q155H	disrupting interaction strength
R255H	with no effect

Variants of: B4
Conditions: with agrg7_human ADGRG7, Q96K78

Variant	effect of a mutation on the interaction
E108K	with no effect

Variants of: B5
Conditions: with gem_human GEM

Variant	effect of a mutation on the interaction
L12H	disrupting interaction strength

Variants of: B6
Conditions: with 8odp_human NUDT1, P36639

Variant	effect of a mutation on the interaction
R197W	with no effect

Variants of: B6
Conditions: with 8odp_human NUDT1, P36639
Remark: another data set of the same source

Variant	effect of a mutation on the interaction
E381D	with no effect

Variants of: B7
Conditions: with psa1_human PSMA1, P25786
Sequence of psa1_human PSMA1, P25786 (P25786 whole entry): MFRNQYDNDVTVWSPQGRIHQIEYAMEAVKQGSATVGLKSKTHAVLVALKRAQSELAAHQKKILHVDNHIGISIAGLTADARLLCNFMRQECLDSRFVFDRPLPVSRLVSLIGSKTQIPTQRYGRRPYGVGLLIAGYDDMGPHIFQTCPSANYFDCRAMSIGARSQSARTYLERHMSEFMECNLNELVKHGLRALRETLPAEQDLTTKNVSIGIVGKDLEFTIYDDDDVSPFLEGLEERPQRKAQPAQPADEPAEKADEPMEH

Variant	effect of a mutation on the interaction
I11M	with no effect
G300S	with no effect
A458V	with no effect
N479S	with no effect
L483R	with no effect
D565V	with no effect

Variants of: B7
Conditions: with cdn2c_human CDKN2C

Variant	effect of a mutation on the interaction
I11M	with no effect
G300S	with no effect
A458V	with no effect
N479S	with no effect
L483R	with no effect
D565V	with no effect

Variants of: B8
Conditions: with ift25_human IFT25, Q9Y547

Variant	effect of a mutation on the interaction
A142V	disrupting interaction strength
